In patent US20240029824A1 (University of Washington, published 2024):
One block for each binder: values may come before it.

How the values were obtained:
[1] = molecular target: T1, DHT03_3arm_A21/B21/C82 chain C; assay: three components purified separately, mixed equimolar, heat annealed, SEC, negative stain EM
T1 construct: also called chain C DHR82 fusion; chain C of C3-DHT03-01-DHR82 and C4-DHT03-01-DHR82
T1 chain: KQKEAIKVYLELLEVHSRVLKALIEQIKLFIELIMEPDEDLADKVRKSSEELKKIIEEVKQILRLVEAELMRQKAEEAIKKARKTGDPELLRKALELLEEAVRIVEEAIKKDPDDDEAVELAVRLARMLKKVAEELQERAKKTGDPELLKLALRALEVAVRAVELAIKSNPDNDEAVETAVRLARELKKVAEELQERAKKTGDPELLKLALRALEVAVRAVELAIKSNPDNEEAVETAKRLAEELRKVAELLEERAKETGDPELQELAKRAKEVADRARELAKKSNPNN
Text: As is evident from the images in FIGS. 4c and 4d, the cyclic structures retain one of the original heterotrimer helical hairpins in each corner; these short, outward facing protein chains provide fusion points for further elaboration of higher order symmetric assemblies. To evaluate the potential for building up larger nanostructures using the rings as hubs, and explore the modularity of the designed building blocks, we replaced the original outward facing chain C helical hairpin with the chain C DHR82 fusion (as it was the largest 4-repeat DHR) from FIG. 3d, row 8. This was done for two designs (C3-DHT03-01 and C4-DHT03-01), with chain C replaced by fusion C82 through expressing and purifying the three components separately, mixing them in equal molar quantities, and reconstituting using heat annealing.
An AKTA PURE FPLC system was used. Heterotrimer bases, arm extensions, coiled coil C2 rings, and all constructs mentioned in SI were passed through a Cytvia Superdex S200 Increase 10/300 GL column, while C3/C4 rings made from DHT03 were passed through a Cytvia Superdex S6 Increase 10/300 GL column. The mobile phase was TBS (25 mM Tris-HCl pH 8.0, 100 mM NaCl or 25 mM Tris-HCl pH 8.0, 150 mM NaCl). Samples ran at a flow rate of 0.75 ml/min and fractions were collected at 0.5 ml.

C4-DHT03-01 chain B = molecular target: T2, C4-DHT03-01 chain B; assay: chains mixed and annealed, SEC, negative stain EM; A4B4C4 ring
T2 construct: four copies in the A4B4C4 ring; also called C4-DHT03-01-DHR82 chain B
T2 chain: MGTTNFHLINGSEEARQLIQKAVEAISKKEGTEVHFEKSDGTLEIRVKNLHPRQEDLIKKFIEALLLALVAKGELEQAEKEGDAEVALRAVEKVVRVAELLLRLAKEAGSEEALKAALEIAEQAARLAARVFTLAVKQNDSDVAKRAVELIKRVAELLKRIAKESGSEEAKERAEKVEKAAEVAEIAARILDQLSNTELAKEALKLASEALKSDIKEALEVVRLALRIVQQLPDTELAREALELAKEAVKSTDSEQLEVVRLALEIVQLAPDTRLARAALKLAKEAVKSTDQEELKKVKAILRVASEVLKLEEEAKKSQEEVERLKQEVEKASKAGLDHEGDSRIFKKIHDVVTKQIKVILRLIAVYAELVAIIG

[2] = molecular target: T3, DHT03 chain C (SEQ ID NO: 59); assay: as above
T3 chain: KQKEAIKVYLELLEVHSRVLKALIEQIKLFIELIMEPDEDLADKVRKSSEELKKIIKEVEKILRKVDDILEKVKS

DHT01-4arm-02 chain B [3] = molecular target: T4, DHT01-4arm-02 chain B; assay: bicistronic expression, SAXS, negative stain EM; A2B2 ring
T4 construct: Strep-tag II was added to the N-terminus of chain B of DHT01 arms; also called C2-DHT01-04 chain B
T4 chain: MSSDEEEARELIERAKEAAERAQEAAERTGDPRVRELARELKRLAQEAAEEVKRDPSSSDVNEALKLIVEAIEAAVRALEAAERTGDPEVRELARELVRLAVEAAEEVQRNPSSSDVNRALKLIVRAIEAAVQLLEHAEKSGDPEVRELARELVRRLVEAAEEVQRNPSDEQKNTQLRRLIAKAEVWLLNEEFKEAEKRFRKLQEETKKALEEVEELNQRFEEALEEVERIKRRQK

DHT01-4arm-02 chain B [4] = molecular target: T4, DHT01-4arm-02 chain B; assay: SEC and SDS-PAGE; chains of one ABC heterotrimer
DHT01-4arm-01 chain C = molecular target: T5, DHT01-4arm-01 chain C; assay: co-expression, pull-downs, SEC, native MS, SAXS; chains of one ABC heterotrimer
T5 construct: also called DHT01-4arm-02 chain C; C2-DHT01-01 chain B
T5 chain: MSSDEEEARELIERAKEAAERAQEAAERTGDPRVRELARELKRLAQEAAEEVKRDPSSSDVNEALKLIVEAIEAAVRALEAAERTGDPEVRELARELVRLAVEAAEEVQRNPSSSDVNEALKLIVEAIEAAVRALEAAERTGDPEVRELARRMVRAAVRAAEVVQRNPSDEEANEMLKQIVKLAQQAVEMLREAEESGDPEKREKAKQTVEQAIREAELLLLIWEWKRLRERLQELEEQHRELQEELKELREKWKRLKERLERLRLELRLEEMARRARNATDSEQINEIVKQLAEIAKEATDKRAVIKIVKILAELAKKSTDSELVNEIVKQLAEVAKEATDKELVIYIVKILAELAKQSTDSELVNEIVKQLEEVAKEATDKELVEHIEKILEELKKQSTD

DHT01-4arm-01 chain B = molecular target: T6, DHT01-4arm-01 chain B; assay: as above
T6 construct: Strep-tag II was added to the N-terminus of chain B of DHT01 arms
T6 chain: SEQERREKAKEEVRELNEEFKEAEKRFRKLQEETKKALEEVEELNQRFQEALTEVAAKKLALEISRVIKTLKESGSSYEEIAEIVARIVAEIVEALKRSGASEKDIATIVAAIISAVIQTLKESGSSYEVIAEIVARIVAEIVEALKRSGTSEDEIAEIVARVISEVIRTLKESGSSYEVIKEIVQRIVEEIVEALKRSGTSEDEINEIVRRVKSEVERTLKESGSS

C3-DHT03-02 chain B = molecular target: T7, C3-DHT03-02 chain B; assay: chains mixed and annealed, SEC, negative stain EM; A3B3C3 ring
T7 construct: three copies in the A3B3C3 ring
T7 chain: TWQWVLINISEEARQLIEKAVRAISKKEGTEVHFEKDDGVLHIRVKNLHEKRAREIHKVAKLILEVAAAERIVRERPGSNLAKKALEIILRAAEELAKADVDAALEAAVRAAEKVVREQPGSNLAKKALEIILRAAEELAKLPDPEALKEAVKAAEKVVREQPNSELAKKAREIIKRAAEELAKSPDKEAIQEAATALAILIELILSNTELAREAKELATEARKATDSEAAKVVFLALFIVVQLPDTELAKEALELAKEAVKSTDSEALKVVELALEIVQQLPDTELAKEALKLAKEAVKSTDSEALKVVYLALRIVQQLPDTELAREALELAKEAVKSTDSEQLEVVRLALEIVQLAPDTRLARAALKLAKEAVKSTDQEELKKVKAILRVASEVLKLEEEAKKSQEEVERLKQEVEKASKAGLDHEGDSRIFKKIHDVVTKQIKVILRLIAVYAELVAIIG

[5] = molecular target: T3, DHT03 chain C (SEQ ID NO: 59); assay: as above
C3-DHT03-01 chain B = molecular target: T8, C3-DHT03-01 chain B; assay: as above
T8 construct: three copies in the A3B3C3 ring; also called C3-DHT03-01-DHR82 chain B
T8 chain: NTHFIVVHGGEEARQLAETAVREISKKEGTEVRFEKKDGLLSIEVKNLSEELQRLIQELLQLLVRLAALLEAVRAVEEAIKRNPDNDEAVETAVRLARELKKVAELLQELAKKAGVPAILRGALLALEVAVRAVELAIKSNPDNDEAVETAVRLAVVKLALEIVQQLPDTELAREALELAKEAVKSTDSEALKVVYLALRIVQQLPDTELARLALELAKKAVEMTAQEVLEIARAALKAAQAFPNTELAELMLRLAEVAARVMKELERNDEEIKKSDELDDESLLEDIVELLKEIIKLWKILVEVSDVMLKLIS

B1: C4-DHT03-01 chain A (designed binder)
chain: MGNTHFIVVHGGEEARQLAETAVREISKKEGTEVRFEKKDGLLSIEVKNLSEELQRLIQELLQLLVRLAALLEAVRAVEEAIKRNPDNDEAVETAVRLARELKKVAELLQELAKKAGVPAILRGALLALLVAARAVALAALANSKNDEAREALKRLAEELKKVAKELKERAKKTKDSELERLALAAELMALAAEIVAQLANTELAREALELATEAIKASDDEALRVVKLALRIVQQLPDTELARLALELAKKAVEMTAQEVLEIARAALKAAQAFPNTELAELMLRLAEVAARVMKELERNDEEIKKSDELDDESLLEDIVELLKEIIKLWKILVEVSDVMLKLIS
notes: four copies in the A4B4C4 ring; also called C4-DHT03-01-DHR82 chain A
binding result [1]: binds | binding result (C4-DHT03-01 chain B): binds | binding result [2]: binds

B3: DHT01-4arm-01 chain A (designed binder)
chain: DEEEKLRESLEEQKKRVKEIEREHEEIREALKRLQQSVLRQAVRLAKLGDDSEMINRIVKDLAEQAKEATDKREVIKIVKALAELAKNSTDSELVNEIVKQLAEVAKEATDKELVIYIVKILAELAKQSTDSELVNEIVKQLEEVAKEATDKELVEHIEKILEELKKQSTD
notes: also called DHT01-4arm-02 chain A
binding result (DHT01-4arm-02 chain B [4]): binds | binding result (DHT01-4arm-01 chain C): binds | binding result (DHT01-4arm-01 chain B): binds

B4: C3-DHT03-02 chain A (designed binder)
chain: SSIFLLSNVDESARQLAEELVREISKKEGTEVRFEKDDGFLTIEVKNLSEERLREIARALQLIVDVANAERVVRERPGSNLAKKALEIILRAAEELAKLTLEASLKAAQIAAELVVREQPGSNLAEKAKTIILQARAAELAIRIEEQLKDTELAKEAKELATEAIKAQDKEALKVVELALKIVQQLPDTELAKEALKLAKEAVKSTDSEALKVVELALEIVQQLPDTELAKEALELAEEAVKSTDSEALKVVKLALEIVQQLPDTELAREALELAKEAVKSTDSEALKVVYLALRIVQQLPDTELARLALELAKKAVEMTAQEVLEIARAALKAAQAFPNTELAELMLRLAEVAARVMKELERNDEEIKKSDELDDESLLEDIVELLKEIIKLWKILVEVSDVMLKLIS
notes: three copies in the A3B3C3 ring
binding result (C3-DHT03-02 chain B): binds | binding result [5]: binds

Next, values leading:

binding result (DHT01-4arm-02 chain B [3]): binds
B2: C2-DHT01-04 chain A (designed binder)
chain: DEEEKLRESLEEQKKRVKEIEREHEEIREALKRLQQSVLRQAVRLAKLGDDSEMINRIVKDLAEQAKEATDKREVIKIVKALAELAKNSTDRELINEIAKQLAEVAKEATDEELQRYIAKILIELAEQAIKEAERSLREGNPEKAREDVRLALELVRLLLEIAQALNLLEVLEEAARLAFEVARVAKEVGSPETARQARETAERLLEWAMKMIEEKAKKEKDRNDQSSDVNEAAKLIREAAEAAQRAREAASRTGDPEVKDLAWRMVEAALKAAAVVATNPSDEEANEMLKQIVKLAQQAVEMLREAEESGDPEKREKAKQTVEQAIREAELLLLIWEWKRLRERLQELEEQHRELQEELKELREKWKRLKERLERLRLELRLEEMARRARNATDSEQINEIVKQLAEIAKEATDKRAVIKIVKILAELAKKSTDSELVNEIVKQLAEVAKEATDKELVIYIVKILAELAKQSTDSELVNEIVKQLEEVAKEATDKELVEHIEKILEELKKQSTD
notes: two copies in the A2B2 ring

binding result [1]: binds | binding result (C3-DHT03-01 chain B): binds | binding result [5]: binds
B5: C3-DHT03-01 chain A (designed binder)
chain: TTNFHLINGSEEARQLIQKAVEAISKKEGTEVHFEKSDGTLEIRVKNLHPRQEDLIKKFIEALLLALVAKGELEQAEKEGDAEVALRAVEKVVRVAELLLRLAKEAGSEEALKAALEIAEQAARLAKRVLELAEKQGDAEVALKAVLLVVIVAALLVKIAKESGSEEAKERATRVAREASRLADRVEELARKQNNEDVTLAAKVLKLAADIIAQLMNTELAEEAAQLATEALKATDREQLEVVRLALEIVQLAPDTRLARAALKLAKEAVKSTDQEELKKVKAILRVASEVLKLEEEAKKSQEEVERLKQEVEKASKAGLDHEGDSRIFKKIHDVVTKQIKVILRLIAVYAELVAIIG
notes: three copies in the A3B3C3 ring; also called C3-DHT03-01-DHR82 chain A
